The chains are these.
B1: T220V: bx9 SEQ ID NO:1 mutant (protein)
chain: MASSRTGAGAGGRVVVFPFPFQGHFNPVMRLARALHARGLAITVFHSGALDPADYPADYRFVPVTVEADPKLLASEDIAAIVTTLNASCDAPFRARLSALLAAEGRDSVRCVFTDVSWNAVLTASSDLGVPALGMMTASAASLRDYMAYRTLIDKGYLPVKEERKEDPVPELPPYLVKDLLRVDTSDLEEFAELLARTVTAARRASGLIFNTFPLIETDVLAEIHKALSVPVFAVAPLNKLVPTATASLHGVVQADRGCLQWLDTQQPGSVLYVSFGSMAAMDPHEFVELAWGLADSKRPFVWVVRPNLIRGFESGALPDGVEDEVRGRGIVVAWAPQEEVLAHPAVGGFLTHNGWNSTVEAISEGVPMVCCPRHGDQFGNMRYVCDVWKVGTELVGEQLERGQVKAAIDRLFGTKEGEEIKERMKEFKIAAAKGIGIGVDVDETASPRTDLTDLVDLIKSF
modifications: Zea mays
B2: T220M: bx9 SEQ ID NO:1 mutant (protein)
chain: MASSRTGAGAGGRVVVFPFPFQGHFNPVMRLARALHARGLAITVFHSGALDPADYPADYRFVPVTVEADPKLLASEDIAAIVTTLNASCDAPFRARLSALLAAEGRDSVRCVFTDVSWNAVLTASSDLGVPALGMMTASAASLRDYMAYRTLIDKGYLPVKEERKEDPVPELPPYLVKDLLRVDTSDLEEFAELLARTVTAARRASGLIFNTFPLIETDMLAEIHKALSVPVFAVAPLNKLVPTATASLHGVVQADRGCLQWLDTQQPGSVLYVSFGSMAAMDPHEFVELAWGLADSKRPFVWVVRPNLIRGFESGALPDGVEDEVRGRGIVVAWAPQEEVLAHPAVGGFLTHNGWNSTVEAISEGVPMVCCPRHGDQFGNMRYVCDVWKVGTELVGEQLERGQVKAAIDRLFGTKEGEEIKERMKEFKIAAAKGIGIGVDVDETASPRTDLTDLVDLIKSF
modifications: Zea mays
B3: T220R: bx9 SEQ ID NO:1 mutant (protein)
chain: MASSRTGAGAGGRVVVFPFPFQGHFNPVMRLARALHARGLAITVFHSGALDPADYPADYRFVPVTVEADPKLLASEDIAAIVTTLNASCDAPFRARLSALLAAEGRDSVRCVFTDVSWNAVLTASSDLGVPALGMMTASAASLRDYMAYRTLIDKGYLPVKEERKEDPVPELPPYLVKDLLRVDTSDLEEFAELLARTVTAARRASGLIFNTFPLIETDRLAEIHKALSVPVFAVAPLNKLVPTATASLHGVVQADRGCLQWLDTQQPGSVLYVSFGSMAAMDPHEFVELAWGLADSKRPFVWVVRPNLIRGFESGALPDGVEDEVRGRGIVVAWAPQEEVLAHPAVGGFLTHNGWNSTVEAISEGVPMVCCPRHGDQFGNMRYVCDVWKVGTELVGEQLERGQVKAAIDRLFGTKEGEEIKERMKEFKIAAAKGIGIGVDVDETASPRTDLTDLVDLIKSF
modifications: Zea mays
B4: T220S: bx9 SEQ ID NO:1 mutant (protein)
chain: MASSRTGAGAGGRVVVFPFPFQGHFNPVMRLARALHARGLAITVFHSGALDPADYPADYRFVPVTVEADPKLLASEDIAAIVTTLNASCDAPFRARLSALLAAEGRDSVRCVFTDVSWNAVLTASSDLGVPALGMMTASAASLRDYMAYRTLIDKGYLPVKEERKEDPVPELPPYLVKDLLRVDTSDLEEFAELLARTVTAARRASGLIFNTFPLIETDSLAEIHKALSVPVFAVAPLNKLVPTATASLHGVVQADRGCLQWLDTQQPGSVLYVSFGSMAAMDPHEFVELAWGLADSKRPFVWVVRPNLIRGFESGALPDGVEDEVRGRGIVVAWAPQEEVLAHPAVGGFLTHNGWNSTVEAISEGVPMVCCPRHGDQFGNMRYVCDVWKVGTELVGEQLERGQVKAAIDRLFGTKEGEEIKERMKEFKIAAAKGIGIGVDVDETASPRTDLTDLVDLIKSF
modifications: Zea mays
B5: T220C: bx9 SEQ ID NO:1 mutant (protein)
chain: MASSRTGAGAGGRVVVFPFPFQGHFNPVMRLARALHARGLAITVFHSGALDPADYPADYRFVPVTVEADPKLLASEDIAAIVTTLNASCDAPFRARLSALLAAEGRDSVRCVFTDVSWNAVLTASSDLGVPALGMMTASAASLRDYMAYRTLIDKGYLPVKEERKEDPVPELPPYLVKDLLRVDTSDLEEFAELLARTVTAARRASGLIFNTFPLIETDCLAEIHKALSVPVFAVAPLNKLVPTATASLHGVVQADRGCLQWLDTQQPGSVLYVSFGSMAAMDPHEFVELAWGLADSKRPFVWVVRPNLIRGFESGALPDGVEDEVRGRGIVVAWAPQEEVLAHPAVGGFLTHNGWNSTVEAISEGVPMVCCPRHGDQFGNMRYVCDVWKVGTELVGEQLERGQVKAAIDRLFGTKEGEEIKERMKEFKIAAAKGIGIGVDVDETASPRTDLTDLVDLIKSF
modifications: Zea mays
B6: T220K: bx9 SEQ ID NO:1 mutant (protein)
chain: MASSRTGAGAGGRVVVFPFPFQGHFNPVMRLARALHARGLAITVFHSGALDPADYPADYRFVPVTVEADPKLLASEDIAAIVTTLNASCDAPFRARLSALLAAEGRDSVRCVFTDVSWNAVLTASSDLGVPALGMMTASAASLRDYMAYRTLIDKGYLPVKEERKEDPVPELPPYLVKDLLRVDTSDLEEFAELLARTVTAARRASGLIFNTFPLIETDKLAEIHKALSVPVFAVAPLNKLVPTATASLHGVVQADRGCLQWLDTQQPGSVLYVSFGSMAAMDPHEFVELAWGLADSKRPFVWVVRPNLIRGFESGALPDGVEDEVRGRGIVVAWAPQEEVLAHPAVGGFLTHNGWNSTVEAISEGVPMVCCPRHGDQFGNMRYVCDVWKVGTELVGEQLERGQVKAAIDRLFGTKEGEEIKERMKEFKIAAAKGIGIGVDVDETASPRTDLTDLVDLIKSF
modifications: Zea mays
B7: T220I: bx9 SEQ ID NO:1 mutant (protein)
chain: MASSRTGAGAGGRVVVFPFPFQGHFNPVMRLARALHARGLAITVFHSGALDPADYPADYRFVPVTVEADPKLLASEDIAAIVTTLNASCDAPFRARLSALLAAEGRDSVRCVFTDVSWNAVLTASSDLGVPALGMMTASAASLRDYMAYRTLIDKGYLPVKEERKEDPVPELPPYLVKDLLRVDTSDLEEFAELLARTVTAARRASGLIFNTFPLIETDILAEIHKALSVPVFAVAPLNKLVPTATASLHGVVQADRGCLQWLDTQQPGSVLYVSFGSMAAMDPHEFVELAWGLADSKRPFVWVVRPNLIRGFESGALPDGVEDEVRGRGIVVAWAPQEEVLAHPAVGGFLTHNGWNSTVEAISEGVPMVCCPRHGDQFGNMRYVCDVWKVGTELVGEQLERGQVKAAIDRLFGTKEGEEIKERMKEFKIAAAKGIGIGVDVDETASPRTDLTDLVDLIKSF
modifications: Zea mays
B8: T220E: bx9 SEQ ID NO:1 mutant (protein)
chain: MASSRTGAGAGGRVVVFPFPFQGHFNPVMRLARALHARGLAITVFHSGALDPADYPADYRFVPVTVEADPKLLASEDIAAIVTTLNASCDAPFRARLSALLAAEGRDSVRCVFTDVSWNAVLTASSDLGVPALGMMTASAASLRDYMAYRTLIDKGYLPVKEERKEDPVPELPPYLVKDLLRVDTSDLEEFAELLARTVTAARRASGLIFNTFPLIETDELAEIHKALSVPVFAVAPLNKLVPTATASLHGVVQADRGCLQWLDTQQPGSVLYVSFGSMAAMDPHEFVELAWGLADSKRPFVWVVRPNLIRGFESGALPDGVEDEVRGRGIVVAWAPQEEVLAHPAVGGFLTHNGWNSTVEAISEGVPMVCCPRHGDQFGNMRYVCDVWKVGTELVGEQLERGQVKAAIDRLFGTKEGEEIKERMKEFKIAAAKGIGIGVDVDETASPRTDLTDLVDLIKSF
modifications: Zea mays
B9: T220N: bx9 SEQ ID NO:1 mutant (protein)
chain: MASSRTGAGAGGRVVVFPFPFQGHFNPVMRLARALHARGLAITVFHSGALDPADYPADYRFVPVTVEADPKLLASEDIAAIVTTLNASCDAPFRARLSALLAAEGRDSVRCVFTDVSWNAVLTASSDLGVPALGMMTASAASLRDYMAYRTLIDKGYLPVKEERKEDPVPELPPYLVKDLLRVDTSDLEEFAELLARTVTAARRASGLIFNTFPLIETDNLAEIHKALSVPVFAVAPLNKLVPTATASLHGVVQADRGCLQWLDTQQPGSVLYVSFGSMAAMDPHEFVELAWGLADSKRPFVWVVRPNLIRGFESGALPDGVEDEVRGRGIVVAWAPQEEVLAHPAVGGFLTHNGWNSTVEAISEGVPMVCCPRHGDQFGNMRYVCDVWKVGTELVGEQLERGQVKAAIDRLFGTKEGEEIKERMKEFKIAAAKGIGIGVDVDETASPRTDLTDLVDLIKSF
modifications: Zea mays
B10: T220A: bx9 SEQ ID NO:1 mutant (protein)
chain: MASSRTGAGAGGRVVVFPFPFQGHFNPVMRLARALHARGLAITVFHSGALDPADYPADYRFVPVTVEADPKLLASEDIAAIVTTLNASCDAPFRARLSALLAAEGRDSVRCVFTDVSWNAVLTASSDLGVPALGMMTASAASLRDYMAYRTLIDKGYLPVKEERKEDPVPELPPYLVKDLLRVDTSDLEEFAELLARTVTAARRASGLIFNTFPLIETDALAEIHKALSVPVFAVAPLNKLVPTATASLHGVVQADRGCLQWLDTQQPGSVLYVSFGSMAAMDPHEFVELAWGLADSKRPFVWVVRPNLIRGFESGALPDGVEDEVRGRGIVVAWAPQEEVLAHPAVGGFLTHNGWNSTVEAISEGVPMVCCPRHGDQFGNMRYVCDVWKVGTELVGEQLERGQVKAAIDRLFGTKEGEEIKERMKEFKIAAAKGIGIGVDVDETASPRTDLTDLVDLIKSF
modifications: Zea mays
B11: T220L: bx9 SEQ ID NO:1 mutant (protein)
chain: MASSRTGAGAGGRVVVFPFPFQGHFNPVMRLARALHARGLAITVFHSGALDPADYPADYRFVPVTVEADPKLLASEDIAAIVTTLNASCDAPFRARLSALLAAEGRDSVRCVFTDVSWNAVLTASSDLGVPALGMMTASAASLRDYMAYRTLIDKGYLPVKEERKEDPVPELPPYLVKDLLRVDTSDLEEFAELLARTVTAARRASGLIFNTFPLIETDLLAEIHKALSVPVFAVAPLNKLVPTATASLHGVVQADRGCLQWLDTQQPGSVLYVSFGSMAAMDPHEFVELAWGLADSKRPFVWVVRPNLIRGFESGALPDGVEDEVRGRGIVVAWAPQEEVLAHPAVGGFLTHNGWNSTVEAISEGVPMVCCPRHGDQFGNMRYVCDVWKVGTELVGEQLERGQVKAAIDRLFGTKEGEEIKERMKEFKIAAAKGIGIGVDVDETASPRTDLTDLVDLIKSF
modifications: Zea mays

This experiment can be described thus: UDP luminescence plate assay of E. coli extracts, saturation mutants of SEQ ID NO: 1, herbicide V. The format is biochemical, Zea mays. As to conditions: improvement factor relative to w/t bx9 = 1.0, rounded to nearest 0.5; extract activity basis; compound V.
Take B1: the “Preferred amino acid substitutions and (IF) based on RLU/min/ul” value is reported as “G,Q,D,V(1.0)”. For the molecule B2, the “Preferred amino acid substitutions and (IF) based on RLU/min/ul” value is listed as “C,A,N,E,L,I,M(1.5)”.

As to B3, the “Most Preferred amino acid substitutions and (IF) based on RLU/min/ul” value is “S,R(2.5)”. Take B4: the “Most Preferred amino acid substitutions and (IF) based on RLU/min/ul” value is “S,R(2.5)”.

B5: the “Preferred amino acid substitutions and (IF) based on RLU/min/ul” value is given as “C,A,N,E,L,I,M(1.5)”.

Take B6: the “Most Preferred amino acid substitutions and (IF) based on RLU/min/ul” value was found to be 3.0.

With B7, the “Preferred amino acid substitutions and (IF) based on RLU/min/ul” value is “C,A,N,E,L,I,M(1.5)”. With B8, the “Preferred amino acid substitutions and (IF) based on RLU/min/ul” value was “C,A,N,E,L,I,M(1.5)”. Consider B9, for which the “Preferred amino acid substitutions and (IF) based on RLU/min/ul” value was “C,A,N,E,L,I,M(1.5)”. For the molecule B10, the “Preferred amino acid substitutions and (IF) based on RLU/min/ul” value is “C,A,N,E,L,I,M(1.5)”.

B11: the “Preferred amino acid substitutions and (IF) based on RLU/min/ul” value is “C,A,N,E,L,I,M(1.5)”.

The values above are taken from US20200270588A1, “GLUCOSYL TRANSFERASE POLYPEPTIDES AND METHODS OF USE” (Syngenta Participations AG, priority 2017, published 2020).
